The source of these data is PMC11117632, “Rapid and Sensitive Detection of Inactivated SARS-CoV-2 Virus via Fiber-Optic and Electrochemical Impedance Spectroscopy Based Aptasensors”.

This series concerns the target SARS-CoV-2 spike protein (SARS-CoV-2, UniProt P0DTC2 14-1213). The series can be described thus: ELONA; binding buffer 50 mM HEPES pH 7.4, 100 mM NaCl, 5 mM KCl, 2 mM MgCl2, 1 mM CaCl2; […]. The note with it: protein: recombinant, chain copies: 3, label: biotin.

B1: aptamer 6.8 (ssDNA)
DNA: GCAATGGTACGGTACTTCCCGGGGCGGGCTGTCATGCCCATCCTACCGTGACCGCAAAAGTGCACGCTACTTTGCTAA
With B1, the binding result (predicted partial stem-loops) is on record as “no binding”.

B2: aptamer 6.9 (ssDNA)
DNA: GCAATGGTACGGTACTTCCATGGCTGGTGCTTGAGGTGTGTGTGGGGGTAGGGCCAAAAGTGCACGCTACTTTGCTAA
In the case of B2, the binding result is recorded as “no binding”.
